Source: patent US20020082414A1

Tests used:
[1] = target: human ETA-receptor (ET-receptor derived from phETIR) (human) (UniProt P25101); assay: displacement of 50 pM 125I-ET-1 from COS-7 cells expressing the ETA-receptor
[2] = target: human ETB-receptor (ET-receptor derived from pHETBR31 and pHETBR34) (human) (UniProt P24530); assay: displacement of 125I-ET-1 from COS-7 cells expressing the ETB-receptor
Sequence of human ETB-receptor (ET-receptor derived from pHETBR31 and pHETBR34) (human) (P24530 27-442 limits assumed, form in doubt): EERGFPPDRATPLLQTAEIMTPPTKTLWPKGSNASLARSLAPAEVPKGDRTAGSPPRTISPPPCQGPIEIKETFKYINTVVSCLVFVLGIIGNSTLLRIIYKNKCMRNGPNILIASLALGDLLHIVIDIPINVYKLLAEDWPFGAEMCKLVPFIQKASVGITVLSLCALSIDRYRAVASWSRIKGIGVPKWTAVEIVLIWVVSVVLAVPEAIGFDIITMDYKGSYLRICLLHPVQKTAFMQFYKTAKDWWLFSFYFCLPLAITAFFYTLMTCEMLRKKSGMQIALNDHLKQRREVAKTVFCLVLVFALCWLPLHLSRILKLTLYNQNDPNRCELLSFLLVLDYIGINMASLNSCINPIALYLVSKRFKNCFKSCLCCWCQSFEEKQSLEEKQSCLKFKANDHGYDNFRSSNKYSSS

Sequence of human ETA-receptor (ET-receptor derived from phETIR) (human) (P25101 21-427 limits assumed, form in doubt): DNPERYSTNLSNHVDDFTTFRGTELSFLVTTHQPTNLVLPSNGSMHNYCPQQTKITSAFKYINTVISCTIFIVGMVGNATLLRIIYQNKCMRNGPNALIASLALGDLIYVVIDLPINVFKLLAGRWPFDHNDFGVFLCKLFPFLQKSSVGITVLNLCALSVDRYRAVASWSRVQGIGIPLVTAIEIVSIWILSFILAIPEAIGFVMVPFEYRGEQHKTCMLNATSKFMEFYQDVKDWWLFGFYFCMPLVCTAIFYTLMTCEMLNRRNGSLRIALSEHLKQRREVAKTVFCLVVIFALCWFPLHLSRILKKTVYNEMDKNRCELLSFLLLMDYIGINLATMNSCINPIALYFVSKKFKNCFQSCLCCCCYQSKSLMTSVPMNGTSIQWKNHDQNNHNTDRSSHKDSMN

Question: What does the source list for “Endothelin 2 (from UniProt P20800 49-69) (peptide)”?
Answer: IC50 [1]: 6.1 nM; IC50 [2]: 1 nM

Question: With “Endothelin 3 (from UniProt P14138 97-117) (peptide)” as the substance, how does the IC50 [2] read?
Answer: 1 nM
